The results in this text go back to US6399326 (Harvard, dated 2002).

Test [1] has as its target T1, PTP-NP extracellular domain marked with an immunoglobulin tag (mouse, UniProt P80560 28-600).
T1 construct: not shown: immunoglobulin tag
T1 chain: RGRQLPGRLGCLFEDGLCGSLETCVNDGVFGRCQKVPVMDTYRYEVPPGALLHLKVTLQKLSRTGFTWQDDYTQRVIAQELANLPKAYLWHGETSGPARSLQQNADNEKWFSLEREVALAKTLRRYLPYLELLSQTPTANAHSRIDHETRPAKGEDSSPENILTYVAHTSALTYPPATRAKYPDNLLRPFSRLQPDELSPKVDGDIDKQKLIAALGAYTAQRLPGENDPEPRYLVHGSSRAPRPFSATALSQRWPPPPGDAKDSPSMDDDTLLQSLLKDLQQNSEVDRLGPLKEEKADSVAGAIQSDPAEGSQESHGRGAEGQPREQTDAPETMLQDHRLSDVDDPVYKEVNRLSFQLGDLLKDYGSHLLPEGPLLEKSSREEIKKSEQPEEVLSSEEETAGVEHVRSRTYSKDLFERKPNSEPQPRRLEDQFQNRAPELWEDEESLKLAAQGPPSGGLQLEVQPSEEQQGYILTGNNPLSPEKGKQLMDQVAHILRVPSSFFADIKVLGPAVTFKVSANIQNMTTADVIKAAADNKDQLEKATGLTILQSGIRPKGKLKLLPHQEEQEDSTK
As to the kind of experiment: in vitro binding of the two differently tagged extracellular domains (data not shown).

The target in test [2] is T2, PTP-NP (on cells transfected with PTP-NP) (mouse, UniProt P80560 28-1001).
T2 construct: also called PTP-NP type 1; neural and pancreatic receptor protein tyrosine phosphatase
T2 chain: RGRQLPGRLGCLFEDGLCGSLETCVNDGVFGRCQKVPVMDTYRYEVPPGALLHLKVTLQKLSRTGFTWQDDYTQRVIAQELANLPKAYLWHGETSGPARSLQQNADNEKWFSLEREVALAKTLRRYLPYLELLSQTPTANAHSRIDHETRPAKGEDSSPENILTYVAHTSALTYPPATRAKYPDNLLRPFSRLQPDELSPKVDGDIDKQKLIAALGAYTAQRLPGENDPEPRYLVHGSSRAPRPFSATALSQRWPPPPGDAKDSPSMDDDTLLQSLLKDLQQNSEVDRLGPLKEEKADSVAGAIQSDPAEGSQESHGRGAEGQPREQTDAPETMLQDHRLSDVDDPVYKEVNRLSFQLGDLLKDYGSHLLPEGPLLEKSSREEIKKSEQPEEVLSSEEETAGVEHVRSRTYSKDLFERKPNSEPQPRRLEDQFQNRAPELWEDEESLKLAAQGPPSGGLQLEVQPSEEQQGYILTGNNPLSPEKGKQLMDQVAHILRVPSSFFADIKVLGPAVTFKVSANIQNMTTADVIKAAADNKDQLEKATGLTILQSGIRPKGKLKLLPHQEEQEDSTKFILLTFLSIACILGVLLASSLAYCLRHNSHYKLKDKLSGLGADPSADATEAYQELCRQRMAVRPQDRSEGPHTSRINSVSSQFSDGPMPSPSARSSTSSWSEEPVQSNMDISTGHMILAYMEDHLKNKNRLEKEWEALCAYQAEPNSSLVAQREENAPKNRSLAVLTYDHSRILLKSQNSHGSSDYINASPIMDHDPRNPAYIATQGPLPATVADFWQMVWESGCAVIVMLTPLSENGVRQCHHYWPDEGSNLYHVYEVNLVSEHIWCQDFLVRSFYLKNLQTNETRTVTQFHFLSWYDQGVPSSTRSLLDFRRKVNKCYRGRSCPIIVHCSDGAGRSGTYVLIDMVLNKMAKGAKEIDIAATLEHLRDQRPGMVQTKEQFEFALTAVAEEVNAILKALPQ
The test is described as follows: NP-AP probe on cells transfected with PTP-NP (data not shown).

B1: NP-AP fusion protein (extracellular domain of PTP-NP fused to an alkaline phosphatase tag) (other)
chain: RGRQLPGRLGCLFEDGLCGSLETCVNDGVFGRCQKVPVMDTYRYEVPPGALLHLKVTLQKLSRTGFTWQDDYTQRVIAQELANLPKAYLWHGETSGPARSLQQNADNEKWFSLEREVALAKTLRRYLPYLELLSQTPTANAHSRIDHETRPAKGEDSSPENILTYVAHTSALTYPPATRAKYPDNLLRPFSRLQPDELSPKVDGDIDKQKLIAALGAYTAQRLPGENDPEPRYLVHGSSRAPRPFSATALSQRWPPPPGDAKDSPSMDDDTLLQSLLKDLQQNSEVDRLGPLKEEKADSVAGAIQSDPAEGSQESHGRGAEGQPREQTDAPETMLQDHRLSDVDDPVYKEVNRLSFQLGDLLKDYGSHLLPEGPLLEKSSREEIKKSEQPEEVLSSEEETAGVEHVRSRTYSKDLFERKPNSEPQPRRLEDQFQNRAPELWEDEESLKLAAQGPPSGGLQLEVQPSEEQQGYILTGNNPLSPEKGKQLMDQVAHILRVPSSFFADIKVLGPAVTFKVSANIQNMTTADVIKAAADNKDQLEKATGLTILQSGIRPKGKLKLLPHQEEQEDSTK
notes: Used as unpurified supernatant of transfected COS cells; also called NP-AP probe; not shown: limits and
With B1, the binding result in test [1] and in test [2] was “no binding” each time.
